Biological target: T1, CCR5 on CD4+ T cells of a Mauritian cynomolgus macaque (Mauritian cynomolgus macaque, UniProt P61814 1-352)
T1 construct: also called cynomolgus macaque CCR5
Experiment: in vivo CCR5 receptor occupancy on CD4+ T cells after AAV9-huLeron, flow cytometry; also near full CCR5 RO in mesenteric lymph nodes and spleen
Method: The ability of the leronlimab-delivering AAV to transduce myocytes, trigger them to produce leronlimab, and subsequently contain CCR5-tropic retroviral replication was tested. An AAV9 encoding human Fc leronlimab (AAV9-huLeron) was administered at 2×10¹² AAV genomes/kg of to a Mauritian cynomolgus macaque (MCM) chronically infected with the CCR5-tropic virus SHIVSF162P3. […] Leronlimab was detectable in plasma at week 3 after administration of leronlimab-AAV following achievement of full CCR5 receptor occupancy in peripheral blood (FIGS. 2A and 2C). Leronlimab persisted in the plasma for one year post leronlimab-AAV administration (FIG. 2A) without appearance of any ADA (FIG. 2B). Following leronlimab-AAV administration and full CCR5 RO on peripheral blood CD4+ T cells, plasma viral loads fell to undetectable levels. Plasma viremia “blips” that coincided with transient dips in CCR5 RO and plasma leronlimab levels were observed. Finally, CD4+ T cells from mesenteric lymph nodes (LN) and spleen maintained near full CCR5 RO (FIG. 2D). Cell-associated SHIV DNA (FIG. 2E) and RNA (FIG. 2F) decreased in blood and spleen, with minimal decreases in mesenteric LN.

B1: human Fc leronlimab (expressed in vivo from AAV9-huLeron) (antibody, V domains shown)
VH: EVQLVESGGGLVKPGGSLRLSCAASGYTFSNYWIGWVRQAPGKGLEWIGDIYPGGNYIRNNEKFKDKTTLSADTSKNTAYLQMNSLKTEDTAVYYCGSSFGSNYVFAWFTYWGQGTLVTVSS
VL: DIVMTQSPLSLPVTPGEPASISCRSSQRLLSSYGHTYLHWYLQKPGQSPQLLIYEVSNRFSGVPDRFSGSGSGTDFTLKISRVEAEDVGVYYCSQSTHVPLTFGQGTKVEIK
notes: also called PRO 140; PRO140
- binding result: binds
